Assay results reported in the supplement of paper PMC9170038.

tested on: MS2 coat protein; experiment: apparent KD of MS2 coat protein; higher = weaker reporter binding; details: Eterna round: R107; input ligand: theophylline 2 mM
In short: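 For every design, apparent KD is the median of normalised binding-curve fits from its clusters. The RNA switches were transcribed on-chip from Illumina sequencing clusters and titrated with SNAP-549-labelled MS2 coat protein (twofold steps, 0.7 or 1.5 nM to 3 µM; 0.8–1.5 h to 10–20 min per step). Titrations used 100 mM Tris-HCl pH 7.5, 80 mM KCl, 4 mM MgCl2, without or with constant ligand.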

In order of falling “apparent KD of MS2 coat protein” value:
1. AGAUGUAGCGGAAGGAGCGACAUGAGGAUCACCCAUGUCUCCCGUUGUGGGAGUUCCUUAGGUCAGGUAGGUCGCCGUUACGUCA [Omei Arg B SS B v2]  259 nM
2. AUACAUGAGGAUCACCCAUGUCCUCGUGAUCGAGGACCGGUACGGCCGCCACUCGGUCCUCGCGAGGUGGAGUCAAAGACUCCAA [Omei Trp A SS A v5]  137 nM
3. GUGACUUAAAGGCGCCAUUUGUGAUAGGAAGGAGCGGCGAAAUAGCCAGGUAGGUCGCCUAUACAUGAGGAUCACCCAUGUCACC [XARG-A 26]  123 nM
4. CCUGCUACGGGAAACCGUAGCAGGAAUGAUACCAGUAGGAAAGACUACCCUUGGCAGCAUGGGUAACAUGAGGAUCACCCAUGUU [SSThA NP+V+V2 #6 Same Structure]  87.9 nM
5. GGUUGGUGUAUAUAUAUAUUGAUUACUGAAGGAGCGGGAAAUAACCCAGGUAGGUCGCAGAGAUCCACAUGAGGAUCACCCAUGU [!0.J]  51 nM
6. UUUUACGGCGAUCUGGGUUUACCAGAUCGGCGAGGACCGGUACGGCCGCCACUCGUGUUUCUUUAACAUGAGGAUCACCCAUGUA [SSTA #1]  50.9 nM
7. GCUAGUGGCAGAAGGAGCGACAUUUUAAGUGGUCGAUACAUGAGGAUCACCCAUGUACUAUGUCAGGUAGGUCGCUGCCACUAGC [EAB NP+V+V2 #3 +-Same Structure]  42.9 nM
8. CGAUAUAUAGCGGCCGCCACUUACUCAUGAGGUAACAACAUGAGGAUCACCCAUGUUUGAGGAUCAAGGACCGGGCUAUGUAUCG [AstrosSSTryB#14]  29.4 nM
9. GACUCUGUCGGAAGGAGCGCAGAGCCGGUCUUCUACAUGAGGAUCACCCAUGUGCUGGUUAUGCAGGUAGGUCGCCGACGCGUGG [Ismatiza]  27.2 nM
10. UGUAUGUGAUCUGAUACCAGCGUUGAUAACCUGAGGAUCACCCUGGUAAGGCGAAAGCCGCGCCCUUGGCAGCAGAUCGCAUACU  23.3 nM
11. ACAUGAGGAUCACCCAUGUUUGAUGUUCCUCGAGGACCGGUACGGCCGCCACUCGAACGAGUGGCGCGCGAGUGCGCACUCGCGC [aSa]  13 nM

same assay, conditions: Eterna round: R107; input ligand: tryptophan 2.4 mM

In order of rising “apparent KD of MS2 coat protein” value:
1. UGACAUUGCUGCGAUACCAGACAUGAGGAUCACCCAUGUACCAAGGUAAAGAAAUAACGUGUCCCUUGGCAGCGCAGCAAUGUCU [MAT - Exclusion Theophlline B - Mod of Eli - D8]  10.1 nM
2. UCGCGAUAGAGAAGGAGCGUCAACACCACUUAACAUGAGGAUCACCCAUGUGUUACUUUAAGACAGGUAGGUCGCUCUAGCGCUU [JR_Nu_ExcArginiB_Sub027]  11.5 nM
3. AAAGGUCGCAAUAAAUCUCCUACAUGUGAAGGAGCGCCCGAAAGGGCAGGUAGGUCGCACAUGAGGAUCACCCAUGUGAGCGACC [MAT - Exclusion Arginine A - Mod of Eli - D2]  11.8 nM
4. AUUCUUUACUGAAGGAGCGUCAUUCUUACAUGAGGAUCACCCAUGUUUAUUCUUUAUUAUUGACAGGUAGGUCGCAGAUUUUUUA [JR_SSArginiB_Sub018]  14.3 nM
5. UUUUACGGCGAUCUGGGUUUACCAGAUCGGCGAGGACCGGUACGGCCGCCACUCGUGUUUCUUUAACAUGAGGAUCACCCAUGUA [SSTA #1]  16 nM
6. CACAUGAGGAUCACCCAUGUCUGAACUGAAGGAGCGCUAAACAAGGCAGGUAGGUCGCGGAAUCGUGUGUGCAUAUGCACACGCG [9.V]  16.5 nM
7. ACAUGAGGAUCACCCAUGUAAUGGCACGAUACCAGCUGAUCCCGUGGCCCUUGGCAGCGUCCGGUGUGGUCCGCCGGGUUGGACG [XXXMULLIN]  24.1 nM
8. GACUCUGUCGGAAGGAGCGCAGAGCCGGUCUUCUACAUGAGGAUCACCCAUGUGCUGGUUAUGCAGGUAGGUCGCCGACGCGUGG [Ismatiza]  24.6 nM
9. UGUUUUGUGAUGGAUACCAGCAGAGAAAACGUUUAUCCUAACAUGAGGAUCACCCAUGUAUGCCCUUGGCAGCUGUUGUGGGAUA [8.R]  27.9 nM
10. CAUACUUUAGUAUGUUAUGUGGACAGUGAUACCAGAUACGAAAGUAUCCCUUGGCAGCACAACAUGAGGAUCACCCAUGUAAUUU [Theophylline A 5]  28.2 nM
11. CUAUAUAGAAAACUAUAUAGAGUGGGUGAACGAGGACCGGUACGGCCGCCACUCGGACAUGAGGAUCACCCAUGUCCAUGUGAAA [AstrosExyTryA#25]  29.4 nM
12. UUAAUUAUAUAUUAUAUAAUAUAUACAGAAGGAGCGUGAUAAAACACAGGUAGGUCGCUGAAGGGAACAUGAGGAUCACCCAUGU [AstrosSSArgA#1]  30 nM
13. GCUAGUGGCAGAAGGAGCGACAUUUUAAGUGGUCGAUACAUGAGGAUCACCCAUGUACUAUGUCAGGUAGGUCGCUGCCACUAGC [EAB NP+V+V2 #3 +-Same Structure]  34 nM
14. GGUUGGUGUAUAUAUAUAUUGAUUACUGAAGGAGCGGGAAAUAACCCAGGUAGGUCGCAGAGAUCCACAUGAGGAUCACCCAUGU [!0.J]  38.9 nM
15. UGGUCCGGCGGAAGGAGCGACAUGAGGAUCACCCAUGUCUCCCGUUAUGGGAGUUCUUUAGGUCAGGUAGGUCGCCGGCGGGUCA [#1 Exclusion - Arginine B Attempt #11 (Inspired by Omei)]  62.9 nM
16. CCUGCUACGGGAAACCGUAGCAGGAAUGAUACCAGUAGGAAAGACUACCCUUGGCAGCAUGGGUAACAUGAGGAUCACCCAUGUU [SSThA NP+V+V2 #6 Same Structure]  66 nM
17. UACAUGAGGAUCACCCAUGUGGCGGAUGAUACCAGUAUGGUGACAUACCCUUGGCAGCAUGCUAUGAGGAUCACCCAUGUGUGCA [EThA NP+V+V2 #11 DOUBLE]  70.7 nM
18. GUGACUUAAAGGCGCCAUUUGUGAUAGGAAGGAGCGGCGAAAUAGCCAGGUAGGUCGCCUAUACAUGAGGAUCACCCAUGUCACC [XARG-A 26]  73.7 nM
19. GGAGGGACCAGAAGGAGCGACAUGAGGAUCACCCAUGUCUCCCGUUAUGGGAGUUCUUUAGGUCAGGUAGGUCGCUGGUCCCUCC [#1 Exclusion - Arginine B Attempt #6 (Inspired by Omei)]  86.1 nM
20. GGGUGGUAGGCGGCCGCCACUGAUUUUCAUUCAUAGAUGACAUGAGGAUCACCCAUGUUUAUGUGCAGGACCGGGCCUGCUGUGG [aaaU]  116 nM
21. UUGGGUUUGUGAAGGAGCGGGUAUGUUUUAUAGUGGAUCCUAACAUGAGGAUCACCCAUGUCCCAGGUAGGUCGCGCGGGUUUGG [12.T]  117 nM
22. AGAUGUAGCGGAAGGAGCGACAUGAGGAUCACCCAUGUCUCCCGUUGUGGGAGUUCCUUAGGUCAGGUAGGUCGCCGUUACGUCA [Omei Arg B SS B v2]  132 nM
23. CCGUCACAUGAGGAUCACCCAUGUGGUGAUACCAGCAGUCGACCCUGCCCUUGGCAGCACAUUAUCAUAAAAGCAAUCAGCAACG [theeternabot_sameState_MS2_Theo_A_41]  135 nM
24. UUAGAUAUGACAGAUACCAGCGUGUUAUAAAACAUGAGGAUCACCCAUGUAGUGAUCGAGCGCCCUUGGCAGCUGGUGUGUUUGG [7.R]  148 nM
25. UGUAUGUGAUCUGAUACCAGCUAAUAAAGCUUGAGGAUCACCCAAGUGGAGCGGAAACGCAGCCCUUGGCAGCAGAUCGCAUACU [Denovo 8 #StaticStem #AlternativeMS2]  224 nM
26. UGUAUGUGAUCUGAUACCAGCGUUGAUAACCUGAGGAUCACCCUGGUAAGGCGAAAGCCGCGCCCUUGGCAGCAGAUCGCAUACU  260 nM
27. ACUCUGUCGGGUGAUACCAGCCUCGGCACAUCUCGCGCCGAACAUGAGGAUCACCCAUGUGGCCCUUGGCAGCACAUGACAAAUC [Rimalearve]  512 nM
